Measured values: publication PMC7225340
pKd: −log10 of the molar value.

The substances below were run against cyno IL21R(1-232)-FLAG-His (cynomolgus monkey) (assay: BLI; ForteBio Octet RED384/HTX, 27 C; 10 mM Tris pH 7.5, 150 mM NaCl, 1 mM CaCl2, BSA, 0.13% Triton X-100; biotinylated human or cyno IL21R(1-232)-FLAG-His captured on streptavidin SAX tips to 2.0 nm; samples in 3-fold dilutions, top 300 nM for mutein fusions; association 20 min, dissociation 1.5 h; global 1:1 fit).

pKd | Substance
10.36 | recombinant human IL-21 (free wild-type cytokine) (from UniProt Q9HBE4 25-162) (ligand)

These substances were tested against human IL21R-Fc (bivalent) (human) (UniProt Q9HBE5) (assay: BLI; ForteBio Octet RED384/HTX, 27 C; 10 mM Tris pH 7.5, 150 mM NaCl, 1 mM CaCl2, BSA, 0.13% Triton X-100; receptor reagent bivalent IL21R-Fc (how it was held is not told); samples in 3-fold dilutions, top 10 nM for wild-type IL21 fusions, 300 nM for mutein fusions; association 20 min, dissociation 1.5 h; global 1:1 fit).
UniProt Q9HBE5, sequence (Q9HBE5 20-232): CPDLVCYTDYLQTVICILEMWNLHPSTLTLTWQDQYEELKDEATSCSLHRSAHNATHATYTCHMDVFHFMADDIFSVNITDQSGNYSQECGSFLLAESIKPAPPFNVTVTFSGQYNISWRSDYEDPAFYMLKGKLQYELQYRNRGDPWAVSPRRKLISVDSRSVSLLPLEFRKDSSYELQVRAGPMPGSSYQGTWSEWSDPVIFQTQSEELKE

Substance | pKd
anti-PD-1 mAb x IL-21 I8S, homodimer | 8.40
anti-PD-1 mAb x IL-21 K72D, homodimer | 9.62
anti-PD-1 mAb x IL-21 K72G, homodimer | 9.60
anti-PD-1 mAb x IL-21 K73A, homodimer | 10.28
anti-PD-1 mAb x IL-21 K73D, homodimer | 9.36
anti-PD-1 mAb x IL-21 K73E, homodimer | 10.14
anti-PD-1 mAb x IL-21 K73G, homodimer | 9.60
anti-PD-1 mAb x IL-21 K73H, homodimer | 9.72
anti-PD-1 mAb x IL-21 K73P, homodimer | 8.70
anti-PD-1 mAb x IL-21 K73Q, homodimer | 10.16
anti-PD-1 mAb x IL-21 K73S, homodimer | 9.77
anti-PD-1 mAb x IL-21 K75G, homodimer | 9.80
anti-PD-1 mAb x IL-21 K75P, homodimer | 9.00
anti-PD-1 mAb x IL-21 L13D, homodimer | 7.96
anti-PD-1 mAb x IL-21 Q12D, homodimer | 9.38
anti-PD-1 mAb x IL-21 Q12E, homodimer | 10.51
anti-PD-1 mAb x IL-21 Q12N, homodimer | 9.42
anti-PD-1 mAb x IL-21 Q12S, homodimer | 9.49
anti-PD-1 mAb x IL-21 Q12T, homodimer | > 9.59
anti-PD-1 mAb x IL-21 Q12V, homodimer | > 8.66
anti-PD-1 mAb x IL-21 Q19D, homodimer | 9.77
anti-PD-1 mAb x IL-21 R5Q, homodimer | 8.68
anti-PD-1 mAb x IL-21 R65G, homodimer | 9.89
anti-PD-1 mAb x IL-21 R76G, homodimer | 8.70
anti-PD-1 mAb x IL-21 R76K, homodimer | 9.70
anti-PD-1 mAb x IL-21 R76M, homodimer | 9.22
anti-PD-1 mAb x IL-21 R76N, homodimer | 7.82

Continued, values first:

pKd | Substance
8.05 | anti-PD-1 mAb x IL-21 K72P, homodimer
9.77 | anti-PD-1 mAb x IL-21 K73I, homodimer
9.18 | anti-PD-1 mAb x IL-21 K77G, homodimer (from UniProt Q9HBE4 25-162)
9.49 | anti-PD-1 mAb x IL-21 P79D, homodimer
9.64 | anti-PD-1 mAb x IL-21 Q12A, homodimer
9.62 | anti-PD-1 mAb x IL-21 R5A, homodimer
9.05 | anti-PD-1 mAb x IL-21 R65P, homodimer
7.92 | anti-PD-1 mAb x IL-21 R76D, homodimer
8.70 | anti-PD-1 mAb x IL-21 R76H, homodimer
9.70 | anti-PD-1 mAb x IL-21 R76L, homodimer
9.40 | anti-PD-1 mAb x IL-21 R76P, homodimer
